Reference: US5686073

Key:
[1] = target: 50 kDa dystrophin-associated glycoprotein (rabbit); experiment: co-immunoprecipitation with the 50 kDa glycoprotein on IVD31-Sepharose from alkaline-treated complex
[2] = target: 50 kDa dystrophin-associated glycoprotein (rabbit); experiment: co-immunoprecipitation with the 50 kDa glycoprotein on IVD31-Sepharose from untreated complex
dystrophin (rabbit) [3] = experiment: co-immunoprecipitation with dystrophin on XIXC2-Sepharose from untreated complex
dystrophin (rabbit) [4] = experiment: co-immunoprecipitation with dystrophin on XIXC2-Sepharose from alkaline-treated complex

Molecule | percent immunoprecipitated [1] | percent immunoprecipitated [2] | percent immunoprecipitated (dystrophin (rabbit) [3]) | percent immunoprecipitated (dystrophin (rabbit) [4])
35 kDa dystrophin-associated glycoprotein | 96% | 96% | 96% | –
43 kDa dystrophin-associated glycoprotein (from UniProt Q28685) | 96% | 96% | 96% | –
59 kDa dystrophin-associated protein | – | 96% | 96% | 51%
156 kDa dystrophin-associated glycoprotein (from UniProt Q28685) | – | 85% | 63% | –
dystrophin | – | 99% | – | –
50 kDa dystrophin-associated glycoprotein (protein) GPGGTEAQQTTLYPLVGRVFVHTLEPASFLHLPEHAAPATIPVTYHAHLQGHPDLPRWLRYTQRSPHHPGFLYGAATPEDRGRQVIEVTAYNRDSFDTAGQSLVLLIRDPEGSPLPYQTEFLVRSHDVEEVLPPTPASHFLTALAGLWEPGELKLLNITSALDRGGRVPLPIGGQKEGVYIKVGSASPFSTCLKMVASPDSHARCARGQPPLLSCYDTLAPHFRVDWCNVSLVDTSVPEPVDEVPTPGDGILEHDPFFCPPTEATARDFLADALVTLLVPLLVALLLALLLAYIMCCRREGRLKRDLATSDIQMVHHCTIHENTEELRQMAASREVPRPLFPLPMFNVRTGERMPPRVDSAQVPLILDQH | – | – | 96% | –
